One data set concerns the target T1, sst2 (Homo sapiens, UniProt P30874).
T1 construct: expressed in transfected cells; host or cells: K562 (human erythroleukemic) cells stably transfected with LZRS-lyt2-IRES-sst2; membrane preparations
Description: Displacement of [125I]-SS14 binding, membrane preparations of K562 sst2+ cells. The method, then: Copy DNA of the human sst2 receptor was merged into a LZRS-lyt2-IRES plasmid background (lyt2 being the mouse CD8 receptor). The calcium precipitation method was used to transfect non-adherent K562 cells with the LZRS-lyt2-IRES-sst2. Expression of lyt2 was evaluated by means of FACS analysis using FITC labeled anti-mouse CD8 antibody (BD PharMingen, Netherlands), 1∶160 diluted in FACS-buffer. Clones were grown form Lyt2 positive isolated cells. Vital clones were cultured and tested in time for stability of sst2 receptor expression, by means of both FACS analysis (using FITC labeled octreotate 200 nM) as well as sst2 mRNA expression by RT-PCR as previously described. […] K562 cells were grown in RPMI 1640 containing L-glutamine, 10% heat-inactivated FCS, 50 µg/ml penicillin and 50 µg/ml streptomycin, and were maintained in an incubator at 37°C in an humidified atmosphere of 5% CO2.
The binding potency of Ce6-conjugates to sst2 on K562 sst2 ^+ cells was evaluated on cell membrane preparations.

The nature of data set [1]: Photobleaching under 652 nm irradiation in PBS. In kind it is physicochemical. Here is the method:
Photobleaching measurements. The loss of photosensitizer absorbance and fluorescence during irradiation was used to monitor photobleaching. Solutions of Ce6 and Ce6-conjugates were prepared in PBS pH = 7.4. The concentration of photosensitizers were adjusted so that all absorb the same number of photons at irradiated region (O.D. = 0.014 at the λirr. = 652 nm (Biolitec pharma, UK). Data was acquired in quartz cuvettes in aerobic conditions using stirring under uniform, measured irradiation at 5 mWcm^-2. At intervals, the cuvette was removed from magnetic stirrer and absorption and fluorescence emission spectrum (λexc = 405 nm) acquired. The initial absorption bleaching rate constants (kblA) for Ce6 and conjugates were evaluated as reported.

The nature of data set [2]: 1-Octanol/PBS partition coefficient. The format is physicochemical. The method, then:
Partition coefficient. Stock solutions of Ce6 and conjugates (0.6 mM) were prepared in DMSO. Lipophilicity was characterized by their partition coefficient Poct/buffer = Coct/Cbuffer between two solvents 1-octanol (oct) and PBS, pH = 7.4 (buffer). Measurements were carried out in duplicates as described by Cunderlikova et al.

Data set [3] can be described thus: pH titration of fluorescence/absorbance (pKa). The format is physicochemical. The method, then: pH measurements. The pH titration of PBS was performed with HNO3 and NaOH over pH 4.0-8.5. The final concentration of Ce6 and Ce6-conjugates in solution was 0.8 µM. The pH was measured by Sentron pH meter (Sentron Europe, NL) and the absorption and fluorescence emission (λexc = 408 nm) profiles of solutions were recorded. The inflection point of titration curves (pKa) were evaluated as reported. Briefly, the results of fluorescence titrations are presented in terms of a plot of fluorescence intensity as a function of pH with the constant concentration of the compound used throughout measurements. However, variations of fluorescence intensity are due to at least two contributions: the changes of molar extinction coefficient (differed absorbed intensity) and the changes of quantum efficiency with pH. To eliminate the influence of the molar extinction coefficient variations, the ratio of fluorescence intensity at the peak position to the absorbance at the excitation wavelength was plotted, followed by sigmoidal function fitting procedure (Figures S2-S4).

Data set [4] concerns K562 sst2+ cells. The experiment in a line: In vitro PDT phototoxicity, K562 sst2+ cells. Conditions: K562 sst2+; 5 J.cm^−2, 652 nm. The format is cell-based, human. Here is the method: (§1) In vitro PDT experiments were performed to determine the phototoxicity of free Ce6 and conjugates. K562 sst2+ and WT cells were seeded in L-polylysine-coated (10 µg/ml) 96-well (8×10^3/well) and 24-well (4×10^4/well) and incubated overnight in 5% CO2 at 37°C. […] After incubation, cells were washed. Fresh serum-free medium was added, and cells were illuminated with 652 nm to a dose from 0.5 to 5 J cm^−2 at 5 mW.cm^−2. Thereafter, serum-containing medium was added and cells were allowed to grow for an additional 3 days in 5% FCS medium. Toxicity was determined by: measurement of DNA contents using the bisbenzimide fluorescent dye (Hoechst 33258, Boehring Diagnostics, CA, USA) and measurement of mitochondrial dehydrogenase cleavage of WST-1 reagent (Roche Diagnostics, Germany), [39]. Experiments were done in triplicates.

For a further data set, the system named is K562 WT cells. The experiment in a line: In vitro PDT phototoxicity, K562 WT cells. In kind it is cell-based, human. Conditions: 5 J.cm^−2, 652 nm; with or without Octreotide co-treatment. The method, then: as §1
The nature of data set [5]: Singlet oxygen quantum yield (SOSGR photooxidation). The format is physicochemical. The following applies: PBS pH = 7.4; SOSGR 1 µM; relative to ΦΔ = 0.64 of Ce6; in duplicate. Here is the method:
Singlet Oxygen Quantum Yield Measurements. Photooxidation of Singlet Oxygen Sensor Green Reagent (SOSGR) (Molecular Probes, NL) was used to determine the singlet oxygen formation by Ce6 and Ce6-conjugates. We used SOSGR because of its high selectivity for singlet oxygen and low sensitivity to hydroxyl radicals/superoxides. Stock solution of SOSGR (5 mM) was prepared in methanol. The final concentration of SOSGR within the photosensitizer solution in PBS pH 7.4 was 1 µM. The irradiation was performed the same as for photobleaching measurements described above. The singlet oxygen quantum yields (Φ?) of conjugates in PBS were determined in duplicate by a relative method with a Φ? = 0.64 of Ce6 in the PBS at pH 7.4 as reference.

A short description of data set [6]: Steady-state absorption and fluorescence in PBS. In kind it is physicochemical. Conditions: PBS pH = 7.4. Here is the method: Steady-State Fluorescence and Absorption Measurements. The fluorescence quantum yields (ΦF) of Ce6 and conjugates in PBS pH 7.4 were determined by a relative method. Ce6 in the buffer at pH 7.4 with the quantum yield of 0.18 [24,32,33] was used as a reference.
The absorption profile of Ce6 and conjugate in PBS of concentration (0.06–1µM) was recorded in Shimadzu spectrophotometer (UV-2101 PC, Duisburg, Germany).
The fluorescence emission of photosensitizers was recorded in a Perkin-Elmer spectrofluorimeter (LS 50B, Massachussetts, USA). Light at 408 nm was used for excitation. The concentration range of compounds matched to the O.D. up to 0.1.

Data set [7] has as its system K562 sst2+ cells. The experiment in a line: Cellular uptake in K562 sst2+ and WT cells. The following applies: 1 µM; serum-free and 5% FCS medium; fluorescence of lysate, λexc = 405 nm. The format is cell-based, human. Here is the method: Stock solutions of Ce6 and Ce6-conjugates (1 mM) were dissolved in 80% DMSO and were stored in the dark at −20°C. Before experiments, the solutions were diluted to a concentration of 0.1 mM in 20% DMSO. K562 sst2+ or WT (3×10^5) in 1 ml RPMI 1640 serum-free or supplemented with 5% FCS were incubated with Ce6 or with conjugate (1 µM) for 15 min to 24 h in the dark at 37°C. After incubation, the cells were centrifuged, cell pellet dissolved in 2% SDS and fluorescence emission spectra (λexc = 405 nm) recorded. Photosensitizer concentrations were calculated in triplicate according to a calibration curve generated by mixing a known concentration of photosensitizer with a lysated control samples.

Read-outs that look alike come from different tables or passages of the source. Positions of bridges follow the written chain, without caps; N, C: chain ends. Non-standard residues stand in square brackets, D forms with d. Residues, ends and D or L forms follow the SMILES beside them. *: point of attachment. X1 = C=Cc1c(C)c2cc3nc(c(CC(=O)O)c4[nH]c(cc5nc(cc1[nH]2)C(C)=C5CC)c(C)c4C(=O)O)[C@@H](CCC(=O)*)[C@@H]3C Where only a bound is given, the exact number is not on record here.

T1 sequence (P30874 whole entry): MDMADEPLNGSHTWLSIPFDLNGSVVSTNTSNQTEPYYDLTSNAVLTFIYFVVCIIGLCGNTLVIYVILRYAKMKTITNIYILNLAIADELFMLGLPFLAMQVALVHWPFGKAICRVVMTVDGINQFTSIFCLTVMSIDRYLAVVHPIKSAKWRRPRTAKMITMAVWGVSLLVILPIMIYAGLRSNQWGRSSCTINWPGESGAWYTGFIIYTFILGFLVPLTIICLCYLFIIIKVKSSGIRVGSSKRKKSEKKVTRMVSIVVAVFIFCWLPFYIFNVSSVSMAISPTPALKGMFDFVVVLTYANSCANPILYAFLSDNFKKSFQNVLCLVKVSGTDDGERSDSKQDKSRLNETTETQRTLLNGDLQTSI

What is called IC50 is the concentration needed to halve the response being measured. Turning to `C=Cc1c(C)c2cc3nc(c(CC(=O)O)c4[nH]c(cc5nc(cc1[nH]2)C(C)=C5CC)c(C)c4C(=O)O)[C@@H](CCC(=O)N[C@@H](CCCCN)C(=O)N[C@@H](CCCCN)C(=O)N[C@@H](CCCCN)C(=O)N[C@H](Cc1ccccc1)C(=O)N[C@H]1CSSC[C@@H](C(=O)N[C@H](C(=O)O)[C@@H](C)O)NC(=O)[C@H]([C@@H](C)O)NC(=O)[C@H](CCCCN)NC(=O)[C@@H](Cc2c[nH]c4ccccc24)NC(=O)[C@H](Cc2ccc(O)cc2)NC1=O)[C@@H]3C` [Conjugate 1, Ce6-K3-[Tyr3]-octreotate] (X1-KKK[dF]CY[dW]KTCT-OH; disulfide 5-10), at sst2 (membrane preparations of K562 sst2+ cells, displacement by increasing concentrations of unlabeled compound, read-out: IC50, competition with specific binding of [125I]-SS14), the IC50 is 68 nM. The photostability entry in data set [1] was “higher photostability”. Moreover, the logD in data set [2] (pH 7.4) was determined as 0.679 ± 0.04. The “pKa, inflection point of pH titration curve” value in data set [3] is recorded as 5.38±0.0615.
Consider `C=Cc1c(C)c2cc3nc(c(CC(=O)O)c4[nH]c(cc5nc(cc1[nH]2)C(C)=C5CC)c(C)c4C(=O)O)[C@@H](CCC(=O)N[C@H](Cc1ccccc1)C(=O)N[C@H]1CSSC[C@@H](C(=O)N[C@H](C(=O)N[C@@H](CCCCN)C(=O)N[C@@H](CCCCN)C(=O)N[C@@H](CCCCN)C(=O)N[C@H](Cc2ccccc2)C(=O)N[C@H]2CSSC[C@@H](C(=O)N[C@H](C(=O)O)[C@@H](C)O)NC(=O)[C@H]([C@@H](C)O)NC(=O)[C@H](CCCCN)NC(=O)[C@@H](Cc4c[nH]c5ccccc45)NC(=O)[C@H](Cc4ccc(O)cc4)NC2=O)[C@@H](C)O)NC(=O)[C@H]([C@@H](C)O)NC(=O)[C@H](CCCCN)NC(=O)[C@@H](Cc2c[nH]c4ccccc24)NC(=O)[C@H](Cc2ccc(O)cc2)NC1=O)[C@@H]3C` [Conjugate 2, Ce6-[Tyr3]-octreotate-K3-[Tyr3]-octreotate] (X1-[dF]CY[dW]KTCTKKK[dF]CY[dW]KTCT-OH; disulfide 2-7, 13-18), for which the “fold higher potency than conjugate 1” value on sst2 (ratio of IC50 values, [125I]-SS14 displacement) is roughly 5 ×. The “effect of Octreotide co-treatment (10^−5 M) on phototoxicity” value in the data set on K562 sst2+ cells [4] is recorded as “not inhibited by Octreotide co-treatment”. Besides, in the data set on K562 WT cells, the “PDT toxicity in K562 WT cells” value is “comparable with the PDT activity on K562 sst2+ cells”. Also, in data set [1] (PBS pH = 7.4, 652 nm irradiation at 5 mWcm^-2, O.D. = 0.014 at 652 nm, aerobic, stirring), the “kblA, rate constant of initial absorption bleaching” value is 22.70 x 10^−2 J^−1 cm^2. For the same molecule, the “fold higher accumulation in 1-octanol than in buffer” value in [2] (1-octanol / PBS pH 7.4) was greater than 600 ×. For the same molecule, in data set [2] (1-octanol / PBS pH = 7.4, Poct/buffer = Coct/Cbuffer, stock 0.6 mM in DMSO, duplicates, read-out: LogP, logarithm of partition coefficient), the logD was determined as 2.82 ± 0.34. In data set [5], the “ΦΔ, singlet oxygen quantum yield” value stood at 0.59±0.03. Moreover, in [6], the “full width at half maximum of the Q(0,0) absorption band” value is 26 nm, the “full width at half maximum of the Soret absorption band” value amounted to 42 nm, the “maximum of fluorescence band” value is on record as 665 nm and the “maximum of the Q(0,0) absorption band” value stood at 661 nm. In data set [6], the “maximum of the Soret absorption band” value was 405 nm. In addition, in [6] (relative method, Ce6 (0.18) as reference, excitation 408 nm), the “ΦF, fluorescence quantum yield” value was determined as 0.03. The “uptake in sst2+ cells compared to WT cells (factor)” value with K562 sst2+ cells [7] is “no difference”. Further, the “pKa, inflection point of pH titration curve” value in data set [3] (Fmax/A(λexc) versus pH, sigmoidal fit, PBS titrated with HNO3 and NaOH over pH 4.0-8.5, 0.8 µM, λexc = 408 nm) is 6.28±0.035.

The values are drawn from PMC4128677, “Somatostatin Analogues for Receptor Targeted Photodynamic Therapy” (PLoS ONE, 2014).
